# Laboratory results reported in the supplement of paper PMC9170038.
# Test system: MS2 coat protein
# Assay: apparent KD of MS2 coat protein; designed switch direction (-1 OFF switch, 1 ON switch): 1; higher = weaker reporter binding
# How it was run: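 An oligonucleotide input, 200 uM small-molecule ligand, or no input was present during titration of SNAP-549-labelled MS2 coat protein, which was doubled from 0.7 or 1.5 nM to 3 µM. Designed RNA switches had been transcribed on Illumina chips by stalled E. coli RNA polymerase. Apparent KD per design is the median over clusters of curves fitted to normalised cluster fluorescence.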
# [1] = input ligand: microRNA oligo, concentration not stated
# [2] = Eterna round: R95, input ligand: FMN 200 uM
# [3] = Eterna round: R95, input ligand: microRNA oligo, concentration not stated
# [4] = Eterna round: R95, input ligand: none
sequence,measurement,setting,value
"AUUAUUUAUGCAGGAUAUGAUUAACAUGAGGAUCACCCAUGUGGUGUUGUGAGUAAGGAGAGUGAUCAGAAGGGCAUUUCUUUU [JMF's solution 49] (Eterna round: R96, puzzle: Same State NG 2)",apparent KD of MS2 coat protein,input ligand: FMN 200 uM,596 nM
same,apparent KD of MS2 coat protein,[1],315 nM
same,apparent KD of MS2 coat protein,input ligand: none,492 nM
"AUUAUUUAUGCAGGAUAUGAUUAACAUGAGGAUCACCCAUGUGGUGUUGUGAGUAAGGAGAGUGAUCAGAAGGGCAUUUUUUCU [JMF's solution 55] (Eterna round: R96, puzzle: Same State NG 2)",apparent KD of MS2 coat protein,input ligand: FMN 200 uM,460 nM
same,apparent KD of MS2 coat protein,[1],361 nM
same,apparent KD of MS2 coat protein,input ligand: none,490 nM
"AUUCGUUUGAUAGGAUAUCGCUAUACAUGAGGAUCACCCAUGUUUACCACGCUGGUUUUUCGUACCGAGAAGGAUUCUGAUGAU [JL JR sub007 mod 3] (Eterna round: R96, puzzle: Same State NG 2)",apparent KD of MS2 coat protein,input ligand: FMN 200 uM,35.4 nM
same,apparent KD of MS2 coat protein,[1],27.3 nM
same,apparent KD of MS2 coat protein,input ligand: none,41.4 nM
"AUUGCUUACGCAGGAUAUGAUGUGGAAACUGCGUCAGAAGGGUGAACAGAAUCGUUGCAAGAAGACAUGAGGAUCACCCAUGUC [SameState NG1 #97] (Eterna round: R96, puzzle: Same State NG 1)",apparent KD of MS2 coat protein,input ligand: FMN 200 uM,42 nM
same,apparent KD of MS2 coat protein,[1],34.9 nM
same,apparent KD of MS2 coat protein,input ligand: none,39 nM
AUUUAACAAGCUUUUUGCUCGUCUUAUAAACAUGAGGAUCACCCAUGUAAUAGCGUGAGAGUAAUUAUAUUAAUUAU [JMF 101] (puzzle: Sensor for hsa-mir-208a),apparent KD of MS2 coat protein,[2],14.7 nM
same,apparent KD of MS2 coat protein,[3],36 nM
same,apparent KD of MS2 coat protein,[4],14.7 nM
AUUUAACAAGCUUUUUGCUCGUCUUAUAAACAUGAGGAUCACCCAUGUAAUAGCGUGAGAGUUAUUAUAUAAAUAAU [JMF 87] (puzzle: Sensor for hsa-mir-208a),apparent KD of MS2 coat protein,[2],18 nM
same,apparent KD of MS2 coat protein,[3],33.1 nM
same,apparent KD of MS2 coat protein,[4],16.7 nM
"AUUUUUAAUGCAGGAUAUGAUUAACAUGAGGAUCACCCAUGUGGUGUUGUGAGUAAGGAGAGUGAUCAGAAGGGCAUUUUUUUG [JMF's solution 90] (Eterna round: R96, puzzle: Same State NG 2)",apparent KD of MS2 coat protein,input ligand: FMN 200 uM,753 nM
same,apparent KD of MS2 coat protein,[1],287 nM
same,apparent KD of MS2 coat protein,input ligand: none,458 nM
"CAAACCGACACAGGAUAUGGAGCCGACCGGCACAUGAGGAUCACCCAUGUGCUACAGGUAUGUAGCUAGAAGGGUGAAGGUAUC [Eternabot solution 29] (Eterna round: R96, puzzle: Same State NG 2)",apparent KD of MS2 coat protein,input ligand: FMN 200 uM,48.5 nM
same,apparent KD of MS2 coat protein,[1],56.9 nM
same,apparent KD of MS2 coat protein,input ligand: none,118 nM
CAAACUUAGUAGGGUAGGUACCCAGGAUGACAUGAGGAUCACCCAUGUAAGAGCUUUUUGCUCGUCAUUAACAGUUG [JR_SHM208a_Sub018] (puzzle: Sensor for hsa-mir-208a),apparent KD of MS2 coat protein,[2],57.5 nM
same,apparent KD of MS2 coat protein,[3],102 nM
same,apparent KD of MS2 coat protein,[4],74.5 nM
"CAAGAAAACGCAGGAUAUACCCGGACAACCCGGGUAGAAGGGUGACACAUGAGGAUCACCCAUGUACAUGGCAAUAACCAUGGA [Sobiais] (Eterna round: R96, puzzle: Same State NG 1)",apparent KD of MS2 coat protein,input ligand: FMN 200 uM,15.2 nM
same,apparent KD of MS2 coat protein,[1],10.7 nM
same,apparent KD of MS2 coat protein,input ligand: none,35.4 nM
CAAGUACAUGAGGAUCACCCAUGUAGAAGAGAUGCAGGAUAUGUGGGAAAAGGGAGUGUAACAGAAGGGCAAGGAG [JR_SS!_Sub018] (puzzle: Same State 1),apparent KD of MS2 coat protein,[2],50 nM
same,apparent KD of MS2 coat protein,[3],55.4 nM
same,apparent KD of MS2 coat protein,[4],59.9 nM
CAGCGCUGUCGAGAGGAUAUGCGGUGAUGGACAUGAGGAUCACCCAUGUUAGCGAUAGCAUUACGGUAGAAGGCUCUGCAGCUGC [Soteed - 1] (puzzle: Same State 2),apparent KD of MS2 coat protein,[3],78.9 nM
"CAGCUCGUGUGAGGAUAUGCCGCCGUUUCGGCUGCAGAAGGUGCUACGUUACAUGAGGAUCACCCAUGUCUCUGUUGUUUCGUG [salish99_SSNG1_r04_963] (Eterna round: R96, puzzle: Same State NG 1)",apparent KD of MS2 coat protein,input ligand: FMN 200 uM,20.8 nM
same,apparent KD of MS2 coat protein,[1],17.9 nM
same,apparent KD of MS2 coat protein,input ligand: none,23.2 nM
CCGCGGGUAUCACAGGAUAUACUCAUAAUUACAUGAGGAUCACCCAUGUGACGGAAUUCCGGUGCGUAGAAGGGUGAUGGACCGC [Onquorbe] (puzzle: Same State 2),apparent KD of MS2 coat protein,[2],19.3 nM
same,apparent KD of MS2 coat protein,[3],52.1 nM
same,apparent KD of MS2 coat protein,[4],65.7 nM
"CCGGUAUAUGGAGGAUAUGGAGCCUUAUUGGCUCCAGAAGGCUAAUAACAUGAGGAUCACCCAUGUCCGGCGGUCAAUAGACCG [Eli NG1ss - 59] (Eterna round: R96, puzzle: Same State NG 1)",apparent KD of MS2 coat protein,input ligand: FMN 200 uM,66.7 nM
same,apparent KD of MS2 coat protein,[1],113 nM
same,apparent KD of MS2 coat protein,input ligand: none,336 nM
"CCGUAGAUGGUAGGAUAUGGAGCCUUAUUGGCUCCAGAAGGAUCUAAAACAUGAGGAUCACCCAUGUCGGCGGUCAAUAGACCG [Eli NG1ss - 83] (Eterna round: R96, puzzle: Same State NG 1)",apparent KD of MS2 coat protein,input ligand: FMN 200 uM,67.2 nM
same,apparent KD of MS2 coat protein,[1],65.1 nM
same,apparent KD of MS2 coat protein,input ligand: none,107 nM
"CCGUCGGAGGUAGGAUAUGGAGCCUUAUUGGCUCCAGAAGGAUCAAAUAAAUUAACAAACAUGAGGAUCACCCAUGUCCGACGG [Eli NG1ss - 86] (Eterna round: R96, puzzle: Same State NG 1)",apparent KD of MS2 coat protein,input ligand: FMN 200 uM,156 nM
same,apparent KD of MS2 coat protein,[1],331 nM
same,apparent KD of MS2 coat protein,input ligand: none,558 nM
CCGUGGUAACAUGAGGAUCACCCAUGUACAAGCUUUUUGCUCGUUGGAUCCGGCGCGCCCAUUAUGGGCGCGCCGGA [Nishu_Seq2] (puzzle: Sensor for hsa-mir-208a version 2),apparent KD of MS2 coat protein,[2],26.2 nM
same,apparent KD of MS2 coat protein,[3],16 nM
same,apparent KD of MS2 coat protein,[4],25.6 nM
"CGCAUCAUUGUUACAUGAGGAUCACCCAUGUUUUCGAGUGGAGAGGAUAUCGUAACAGUAUAAAUCGAGAAGGCUCUAUAGUAU [JR_SSNG3_Sub082] (Eterna round: R96, puzzle: Same State NG 3)",apparent KD of MS2 coat protein,input ligand: FMN 200 uM,34.1 nM
same,apparent KD of MS2 coat protein,[1],77.1 nM
same,apparent KD of MS2 coat protein,input ligand: none,81.6 nM
"CGCCAACGCAUAGGAUAUGCUUGUGUGGAUCGGGCAGAAGGGUGGUUGGAAACAUGAGGAUCACCCAUGUAAAAGUAAGAAAAU [Rierinqu] (Eterna round: R96, puzzle: Same State NG 1)",apparent KD of MS2 coat protein,input ligand: FMN 200 uM,1450 nM
same,apparent KD of MS2 coat protein,[1],926 nM
same,apparent KD of MS2 coat protein,input ligand: none,668 nM
"CGCCAGAGAACAGGAUAUGGGCCGCGGCCUAAGGGCUGCUAACUCACAUGAGGAUCACCCAUGUCCCAGAAGGGUUCCUGGCUG [Gexeso] (Eterna round: R96, puzzle: Same State NG 2)",apparent KD of MS2 coat protein,input ligand: FMN 200 uM,602 nM
same,apparent KD of MS2 coat protein,[1],31.4 nM
same,apparent KD of MS2 coat protein,input ligand: none,45.8 nM
